Tests used:
[1] = biological target: T1, full-length RSV F (TM, residues 1–574) from strain A2 with the DS-Cav1 prefusion-stabilizing mutations (Human respiratory syncytial virus A, …, UniProt P03420, stabilised); assay: flow cytometry on cells; Expi293 cells 48 h after transfection with full-length DS-Cav1 RSV F variants, stained with IgG 1 h at 4 °C (D25 Alexa Fluor 488-conjugated; 5C4 detected with FITC goat anti-mouse), fixed; fractional binding relative to motavizumab; details: one partner purified
T1 construct: signal peptide in the construct; In cells F0 is cut by furin-like proteases into F2 and F1 (pep27 removed) and forms trimers; also called RSV A2 pre-F; wild-type A2; source: Expi293, transiently transfected (pVRC8400), on the cell surface

[2] = biological target: full-length RSV F (TM, residues 1–574) from strain A2 with the DS-Cav1 prefusion-stabilizing mutations (Human respiratory syncytial virus A, …, UniProt P03420, stabilised); assay: cell-based or functional assay
[3] = biological target: T2, StrepTagII and 6xHis-tagged RSV pre-F (DS-Cav1) in the 9320 RSV F background (Human respiratory syncytial virus B, …, UniProt Q6V2E7, stabilised); assay: SPR; 6xHis-tagged pre-F (DS-Cav1) captured on an NTA sensor chip to ~150 RU, Biacore X100; Fab injected in 3-fold dilutions (5C4:pre-F 9320, 0.460–3000 nM); double-reference subtracted, 1:1 binding model; details: both partners purified
T2 construct: respiratory syncytial virus fusion glycoprotein, subtype B strain 9320, stabilised in the prefusion conformation by the DS-Cav1 mutations; also called pre-F 9320; pre-F derived from subtype B strain 9320; source: Freestyle 293-F, transfected, expressed with kifunensine (5 µM); purified from supernatant (Strep-Tactin)

[4] = biological target: T3, RSV F (+) FdTHS based on strain A2 (wild-type A2 RSV F ectodomain fused to a C-terminal trimerization motif) (Human respiratory syncytial virus A, …, fully glycosylated (N-linked) | fully glycosylated (N-linked)); assay: crystal structure; 5C4 Fab co-expressed with RSV F (+) FdTHS in Expi293, complex purified (Ni-NTA, Strep-Tactin, thrombin, Superose 6); crystal from 0.2 M ammonium acetate, 0.1 M Bis-Tris pH 6.5, 25% PEG 3350; 3.4 Å; details: both partners purified
T3 construct: F2 subunit (N-terminal fragment of F0 made by furin-like proteases) of the respiratory syncytial virus fusion glycoprotein, strain A2; ectodomain part of the F1 subunit (C-terminal fragment of F0 made by furin-like proteases) of the respiratory syncytial virus fusion glycoprotein, strain A2; Trimer of F2-F1 heterodimers; pep27 is removed by furin-like proteases; also called pre-F; F glycoprotein; …

B1: D25 IgG (antibody, V domains shown)
VH: QVQLVQSGAEVKKPGSSVMVSCQASGGPLRNYIINWLRQAPGQGPEWMGGIIPVLGTVHYAPKFQGRVTITADESTDTAYIHLISLRSEDTAMYYCATETALVVSTTYLPHYFDNWGQGTLVTVSS
VL: DIQMTQSPSSLSAAVGDRVTITCQASQDIVNYLNWYQQKPGKAPKLLIYVASNLETGVPSRFSGSGSGTDFSLTISSLQPEDVATYYCQQYDNLPLTFGGGTKVEIK
notes: D25 heavy chain (human antibody); the variable domain and CH1 are in the D25 Fab of the cited entry PDB 4JHW; rest of the IgG heavy chain not described; D25 light chain (human antibody); in the D25 Fab of the cited entry PDB 4JHW; also called mAb D25; Alexa Fluor 488-conjugated D25 IgG; copies: 2 + 2
[1]
  binding result: binds

B2: 5C4 IgG (antibody, V domains shown)
VH: EVQLQQSGAELVKPGASVKLSCTASGFNIKDTFFHWVKQRPEQGLEWIGRIDPADGHTKYDPKFQGKATITADTSSNTAFLQLSSLTSVDTAVYYCATTITAVVPTPYNAMDYWGQGTSVTVSS
VL: DIVLTQSPASLAVSLGQRTTISCRASESVDSFDNSFIHWYQQKPGQPPKLLIFLASSLESGVPARFSGSGSRTDFTLTIDPVEADDAATYYCQQSNEDPFTFGSGTKLEIK
[2]
  EC50 of 5C4 neutralisation of mKate-RSV A2 wild-type virus on HEp-2 cells (viral F without DS-Cav1; antibody format not given): 4 ng/mL

B3: 5C4 Fab (Fab, V domains shown)
VH: EVQLQQSGAELVKPGASVKLSCTASGFNIKDTFFHWVKQRPEQGLEWIGRIDPADGHTKYDPKFQGKATITADTSSNTAFLQLSSLTSVDTAVYYCATTITAVVPTPYNAMDYWGQGTSVTVSS
VL: DIVLTQSPASLAVSLGQRTTISCRASESVDSFDNSFIHWYQQKPGQPPKLLIFLASSLESGVPARFSGSGSRTDFTLTIDPVEADDAATYYCQQSNEDPFTFGSGTKLEIK
notes: 5C4 Fab heavy chain (antibody elicited in mice); 5C4 Fab light chain (murine kappa, Vk3-10); source: Expi293, transiently co-transfected heavy and light chain plasmids; purified from supernatant (CaptureSelect LC-kappa (murine)); for the complex co-expressed with RSV F
[3]
  binding result: binds
[4]
  stoichiometry N: 3
